Measured values as given in patent publication US20040143098.

System: DBF1 (Zea mays)
Assay: cell_activity
Conditions: maize callus, GUS reporter; nearly 3-fold with ABA

DBF1 (Zea mays), sequence (chain, as listed by the source): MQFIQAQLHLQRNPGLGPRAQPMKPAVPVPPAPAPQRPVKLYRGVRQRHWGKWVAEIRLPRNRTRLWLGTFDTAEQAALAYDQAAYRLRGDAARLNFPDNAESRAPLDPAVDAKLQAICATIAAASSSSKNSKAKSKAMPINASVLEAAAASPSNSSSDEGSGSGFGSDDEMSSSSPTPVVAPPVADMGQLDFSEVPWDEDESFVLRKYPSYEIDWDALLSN

Substance: rab17 promoter -350/+30
- activity: 2 fold
